Experimental data from IntAct's records for PubMed 23435383.

B1: Endonuclease III homolog 2 (Saccharomyces cerevisiae), Q08214 (parent)
chain: MREESRSRKRKHIPVDIEEVEVRSKYFKKNERTVELVKENKINKDLQNYGGVNIDWIKALKPIEYFEWIESRTCDDPRTWGRPITKEEMINDSGAKVPESFLPIYNRVRLMRSKVKTPVDAMGCSMIPVLVSNKCGIPSEKVDPKNFRLQFLIGTMLSAQTRDERMAQAALNITEYCLNTLKIAEGITLDGLLKIDEPVLANLIRCVSFYTRKANFIKRTAQLLVDNFDSDIPYDIEGILSLPGVGPKMGYLTLQKGWGLIAGICVDVHVHRLCKMWNWVDPIKCKTAEHTRKELQVWLPHSLWYEINTVLVGFGQLICMARGKRCDLCLANDVCNARNEKLIESSKFHQLEDKEDIEKVYSHWLDTVTNGITTERHKKK
partner: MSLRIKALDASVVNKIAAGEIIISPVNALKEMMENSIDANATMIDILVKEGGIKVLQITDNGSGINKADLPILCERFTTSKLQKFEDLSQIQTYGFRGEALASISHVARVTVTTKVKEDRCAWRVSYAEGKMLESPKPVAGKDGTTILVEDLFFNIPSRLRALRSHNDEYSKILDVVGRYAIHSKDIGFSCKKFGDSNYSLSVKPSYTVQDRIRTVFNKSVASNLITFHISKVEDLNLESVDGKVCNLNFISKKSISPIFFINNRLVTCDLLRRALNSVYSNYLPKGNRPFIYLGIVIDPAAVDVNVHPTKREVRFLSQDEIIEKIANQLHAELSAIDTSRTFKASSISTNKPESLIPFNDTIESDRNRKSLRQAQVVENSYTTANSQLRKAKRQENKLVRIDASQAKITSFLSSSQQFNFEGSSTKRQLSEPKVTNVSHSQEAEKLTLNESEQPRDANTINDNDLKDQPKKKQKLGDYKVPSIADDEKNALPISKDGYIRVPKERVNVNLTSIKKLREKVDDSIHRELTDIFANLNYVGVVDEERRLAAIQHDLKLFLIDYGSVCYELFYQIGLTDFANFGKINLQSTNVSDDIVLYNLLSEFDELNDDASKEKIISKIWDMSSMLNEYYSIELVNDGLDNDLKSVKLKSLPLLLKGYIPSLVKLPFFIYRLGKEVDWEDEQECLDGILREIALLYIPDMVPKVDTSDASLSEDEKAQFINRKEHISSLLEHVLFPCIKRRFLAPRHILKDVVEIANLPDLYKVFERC
B2: DNA mismatch repair protein MLH1 (Saccharomyces cerevisiae), P38920 (parent)
chain: B1 partner
partner: B1 chain
B3: DNA mismatch repair protein MLH1 (Saccharomyces cerevisiae), P38920 (parent)
chain: B1 partner
partner: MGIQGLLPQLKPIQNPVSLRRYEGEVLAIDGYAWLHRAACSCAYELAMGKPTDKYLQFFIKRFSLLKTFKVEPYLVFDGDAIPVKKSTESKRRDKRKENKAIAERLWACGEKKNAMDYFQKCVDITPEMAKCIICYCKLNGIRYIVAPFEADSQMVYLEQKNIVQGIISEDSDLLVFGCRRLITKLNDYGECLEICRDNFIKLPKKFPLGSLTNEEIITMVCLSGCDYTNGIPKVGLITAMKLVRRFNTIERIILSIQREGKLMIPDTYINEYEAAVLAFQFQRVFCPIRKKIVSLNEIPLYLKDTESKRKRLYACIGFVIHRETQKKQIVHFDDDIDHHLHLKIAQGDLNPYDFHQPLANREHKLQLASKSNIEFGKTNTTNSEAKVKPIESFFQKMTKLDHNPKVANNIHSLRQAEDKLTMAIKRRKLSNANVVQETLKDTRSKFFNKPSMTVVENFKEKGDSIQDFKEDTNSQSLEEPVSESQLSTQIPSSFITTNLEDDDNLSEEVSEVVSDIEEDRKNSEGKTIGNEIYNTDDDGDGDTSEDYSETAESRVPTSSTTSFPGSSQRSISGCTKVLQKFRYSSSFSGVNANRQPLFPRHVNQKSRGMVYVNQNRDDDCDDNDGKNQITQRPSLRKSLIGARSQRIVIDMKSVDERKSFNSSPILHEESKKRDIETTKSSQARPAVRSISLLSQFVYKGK

Variants of: B1
Details: with mlh1_yeast MLH1, P38920

Row | effect of a mutation on the interaction | Variant
1 | decreasing interaction strength | Y26F
2 | disrupting interaction strength | F27Y
3 | disrupting interaction strength | F27A

Variants of: B2
Details: with nth2_yeast NTG2, Q08214

Row | effect of a mutation on the interaction | Variant
4 | disrupting interaction strength | L511A

Variants of: B3
Details: with exo1_yeast EXO1, P39875

Row | effect of a mutation on the interaction | Variant
5 | disrupting interaction strength | L511A
